Switch fluorescence ratio data for 120 sequences are collected here from the supplement of paper PMC10126150.

± gives the standard deviation of the averaged measurements.

For the data set, the system named is ATP. As to the kind of experiment: switch fluorescence ratio, 500 uM ATP over buffer (Cy3 cluster intensity, sum of 5 cycles each) (fold (ratio)); higher = stronger signal-on switching upon ATP binding; sequences stand for … in TCGTCGGCAGCGTCAGATGTGTATAAGAGACAGTTTTTTTTTTTTTTTTTTTTTTTTT…TC. Conditions: aptamer strand: ATP DNA aptamer (quencher-CACCTGGGGGAGTATTGCGGAGGAAGG + anchor), 100 nM annealed; ATP concentration: 500 uM. The method in brief: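 Clusters carrying Cy3-labelled switching strands on a modified Illumina MiSeq flow-cell were annealed to 100 nM quencher-labelled ATP aptamer and imaged in selection buffer. They were imaged again after 15 min with 500 uM ATP at 22 °C, over five buffer/ATP cycles with NaOH stripping and re-annealing in between. For each cluster, the fluorescence ratio is the summed Cy3 intensity of the target cycles divided by that of the buffer cycles, averaged per switch-domain sequence. Clusters outside 100-1000 RFU were left out.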
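Note: ATP exposure 15 min at 22 °C before imaging.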

As to TCTCAGTCCA, the switch fluorescence ratio is 1.02 ± 0.039. For GAGGGGATTT the value was 1.01 ± 0.013; for AAAGTGAGGT, 1.01 ± 0.017; for TTTTCCAGCG, 1.03 ± 0.013. As for AGCGGAAGGC, the figure is 1.04 ± 0.024; as for GGCTGGTAGA, 1 ± 0.02; as for CGGCTTGCGG, 1.03 ± 0.015.

In the case of TCCAAGTGTT, the switch fluorescence ratio amounted to 0.998 ± 0.035. For GAAAGAGGGA the value was 1.02 ± 0.079; for TTTTTCGTGG, 1.01 ± 0.022. For GGGTGGGATT the value was 0.986 ± 0.018; for ATATATTGGT, 0.9922 ± 0.0046; for CCCGGTTTTA, 1.06 ± 0.12. As for CGTACGTTCT, the figure is 1.026 ± 0.0096; as for ATAAAAAGCA, 0.995 ± 0.04.

Consider TTTGGAGCTT, for which the switch fluorescence ratio amounted to 4.01 ± 2.7. As for GTGGTGTTGT, the figure is 0.97 ± 0.037. For GCCTTATATG the value was 0.968 ± 0.03; for AGGGGTTAGT, 0.999 ± 0.036. For the sequence AGGGAATGTA, the switch fluorescence ratio came to 0.99 ± 0.016. As for TAAAGCGAGC, the figure is 1.03 ± 0.023. For GCCCCACCTT the value was 1.08 ± 0.021; for TAAAGTGAGC, 1.028 ± 0.0051.

ATTATATAAT: the switch fluorescence ratio was 1.01 ± 0.046. On to ACATAGGTGA, for which the switch fluorescence ratio was 1.1 ± 0.069. For GGTTTAAGTG the value was 0.979 ± 0.052. For TGGAAAAATT the value was 1.03 ± 0.04; for ACTTTGGTTT, 0.993 ± 0.031; for TAGGGGGCAC, 1 ± 0.025. As to TCGTGAAGAG, the switch fluorescence ratio was 0.987 ± 0.012. As for GCGGGGAACA, the figure is 1 ± 0.017; as for TATGAAAATC, 0.983 ± 0.03; as for AGGGCGGGGA, 1.01 ± 0.058. For GGTGTGTATC the value was 1.01 ± 0.02.

Consider CATCGGGGGG, for which the switch fluorescence ratio amounted to 1 ± 0.02.

Regarding GATCCAGAAT, the switch fluorescence ratio is 0.9977 ± 0.0074. For AGTTTTGCGC the value was 0.972 ± 0.034. For GTGTTTATGC the value was 0.991 ± 0.0044; for AATACTGTCG, 1.01 ± 0.016. In the case of TATGTACATG, the switch fluorescence ratio is 1 ± 0.026. Turning to AAAGGAATTT, the switch fluorescence ratio came out at 1.12 ± 0.19. As for GGCGTGTCGC, the switch fluorescence ratio is 0.9852 ± 0.0037. For CATAAAAACT the value was 1.06 ± 0.017; for ATAGGAAAGG, 0.999 ± 0.035; for GTTGTAAGTT, 0.978 ± 0.0098. For GTGGAATGGG the value was 0.983 ± 0.055; for TTTTTAACGA, 0.9688 ± 0.009; for TCAAATAGGA, 1.01 ± 0.012. As to TTTGGGATTC, the switch fluorescence ratio worked out at 0.979 ± 0.028. For TAGCGGCGTC the value was 1 ± 0.098; for AGGTGTTGT, 1.03 ± 0.053; for CTTGTGTGGT, 1.02 ± 0.014.

As for CAGTTCGTTT, the switch fluorescence ratio amounted to 0.9845 ± 0.0063. As for GATTTTGGCC, the figure is 0.959 ± 0.037; as for CAAATTAGGC, 1.06 ± 0.1; as for GGGTGGGCGC, 1.01 ± 0.058. For AATGGGGTCA the value was 0.991 ± 0.024; for TGCGAACCTT, 1.71 ± 0.12. As for GGCTACCTTG, the figure is 1.047 ± 0.0038; as for CGGTATTTGC, 0.979 ± 0.0099.

As to AAAAAATTAA, the switch fluorescence ratio worked out at 1.04 ± 0.026. As to TGTTTGTTCT, the switch fluorescence ratio was 0.976 ± 0.014.

Regarding TTAGGCTGTG, the switch fluorescence ratio was 0.986 ± 0.03. Consider TGAGGTGGTG, for which the switch fluorescence ratio was determined as 1.01 ± 0.0074. On to CGAGTCCATC, for which the switch fluorescence ratio was determined as 0.955 ± 0.012. For TTTCCTAGTT the value was 1.032 ± 0.0028; for ATTCCTGTT, 1.004 ± 0.0019; for CATATGGCTT, 1.02 ± 0.023. As for TTTAAGTCTA, the switch fluorescence ratio is 0.992 ± 0.039. For TTTTTGGACA the value was 0.993 ± 0.019; for CAAGGCTGCA, 1.04 ± 0.06; for TGGGACTGTT, 0.986 ± 0.028.

Regarding GCCGCGGGTC, the switch fluorescence ratio is 1.08 ± 0.048. For GGCATTTGGA the value was 0.98 ± 0.035; for TTATCGGACG, 0.969 ± 0.084; for TATGTGAGTA, 1.01 ± 0.013. For GATATAGTGC the value was 1.01 ± 0.05. For the sequence GTGACGGGGT, the switch fluorescence ratio came out at 1.01 ± 0.022. As for TTAAATAATT, the figure is 0.992 ± 0.019; as for TAGGTTTTCG, 0.98974 ± 0.00052; as for CGGTAGTATC, 0.982 ± 0.049. Consider GCTTTGGGAA, for which the switch fluorescence ratio stood at 1.03 ± 0.04. As for AGGCGACATT, the figure is 0.9819 ± 0.0056; as for TTGATACCAG, 0.982 ± 0.013; as for GTTTAAGGAC, 0.991 ± 0.038. As for ATTTGGACGA, the figure is 1 ± 0.03; as for AAGTTGAAGG, 1 ± 0.013. For GTTCCTTGGG the value was 1.01 ± 0.016; for GCTTGCGGGG, 0.9774 ± 0.0015; for TGTAGGGTAG, 0.958 ± 0.017. As to TATCGTAGGA, the switch fluorescence ratio is 0.977 ± 0.032. For TGGGGTTCGT the value was 0.998 ± 0.066; for GGATCTAGAA, 0.9644 ± 0.008. As for GATGTCGTGG, the figure is 1.015 ± 0.0089.

In the case of CGATATTGAT, the switch fluorescence ratio turned out to be 1.03 ± 0.035. As for GGGGGTTACG, the figure is 0.998 ± 0.03. For ATGAGTTTTT the value was 1.01 ± 0.054; for CATTGAGTAG, 1.01 ± 0.024; for TGTTTTATAA, 0.995 ± 0.024. As for GGTCGGTATT, the figure is 1.08 ± 0.12; as for ATTGAGAATC, 0.962 ± 0.035; as for TAGGCATTTT, 1 ± 0.023. For CAATTCGATA, the switch fluorescence ratio was found to be 1.02 ± 0.025. TCGAGAGGGT: the switch fluorescence ratio came to 0.996 ± 0.015. As for GATTGGGTAC, the figure is 1.03 ± 0.025; as for ATCGTTGGCT, 1.04 ± 0.07. With ACGTTGGAGA, the switch fluorescence ratio was 1.06 ± 0.0051.

As to GACGGAACGG, the switch fluorescence ratio is 1.04 ± 0.022. As for GGTTGAGCGT, the figure is 1.01 ± 0.047; as for GGTGGTTGTA, 0.919 ± 0.043. For AAAATGCCAC the value was 1.04 ± 0.024; for GGATGGGTAA, 1.01 ± 0.039; for GGCATGTGGT, 1.0254 ± 0.001.

Regarding TTTTGTGGTA, the switch fluorescence ratio was 1.03 ± 0.013. For CTCATGACGG the value was 1.044 ± 0.0061; for AATGGTGAGG, 1.05 ± 0.051; for CCCATTTTTT, 1 ± 0.049. For GGGGTCCAAG the value was 1 ± 0.017; for TATCGTATTG, 0.979 ± 0.011; for GAGAAGAAGC, 1 ± 0.025.
